Assay results taken from a protein production outcome set (Wang et al. 2014).

Assay: label from the status in PepcDB records

Sequence	protein production
MTKRHVSLPADAKDVRRAFVSGVDERLSAAETPDELATAVTGTLADLRGERDAYEAWRDGDDVRPAAAARLATLDPRNASLESEYYAEKDEAAFARSKPLQWLWRQFDTTPLADNVDVALPFRRMLAGHLFAGVGEDVRLFKGITMTYGHNIELGDNAVVHDGVHLDDRGELVVGARASVSNGAHLYTHDHDVVDQTDVTNYRTEIGADARVTQGALVRAGVRVGENALVGSRSVVQGDVPAHHIAVGSPAESVRVKPGWEAVAAPLDAGGERRQAERRLDDAVPADAAVYDEFQRDRSPPGER	failed
MLTEMHIAVIGGDARQLEVIRKLVELDAKLSLIGFDQLDHGFTGAAKESIQNLDFTSVDAIILPVAGTNAKGEVDTIFSNEKVSITKEQIENTPEHFTIYSGIGTPYLENLVSTTNRKLIKLFDRDDVAIYNSIPTVEGTLMMVIQHTDYTIHGSNVMVLGFGRTGMSVARAFQSLGAHVKVGARRSEHIARITEMMFSPFHMQDIEKEVGDIDIVINTIPHLVVTANVISKMPAHTLVIDLASKPGGTDFRYAEKRGVKALLAPGLPGIVAPKTAGQILANVLSQLLAEDVIARKENGE	failed
MEGNQAGSSLDSLIASFNKRIGELQELVIARNMYPASTIPDLSAIDTALSSMELQVQSIKDRLREETEAIPKAKKLIEASLKQQGKLQKMSIYAPSHFPDKATMLNSDLNRCLLQENAKQYEQHSTLSSLKFDEEAAVLPKEKKGRGSPPLWYITVEELNSLSSYMRGRLTLEKVNAAINDMASYAEANAHLIAASKQKLAENLWEKALKLRDIVTEQAVKGKHFFLETDMKGPSLKLDNTGKAILTVLRHLGRISETRIGQNRVIILMKPH	failed
MKPVIQTFLRAAAVAGLALLAGCAGVSTTQSGAIGVDRTQYMSSLVPEQALVQEAGQQYAEIVQEARAKGLLDRDPAQLSRVRAISQRLIAQTGVFRADAANWPWEVHVLSVDEVNAWCMPGGKIAVYTGLLAHIKPTDDELAAVLGHEIAHALREHARERVSQQMATSIGLSVLSMATGSPGASDLGGKLTEVMFTLPNSRTHETEADRMGVELAARAGFDPRAAVTLWQKMGAADGNAPPEFLSTHPSASTRIGELQQALQKVLPLYEQARGQAAKLEHHHHHH	not failed
MRFKAELMNAPEMRRALYRIAHEIVEANKGTEGLALVGIHTRGIPLAHRIARFIAEFEGKEVPVGVLDITLYRDDLTEIGYRPQVRETRIPFDLTGKAIVLVDDVLYTGRTARAALDALIDLGRPRRIYLAVLVDRGHRELPIRADFVGKNVPTSRSEVVKVKVEEVDGEDRVELWEREGA	not failed
MEINRQIIHPLIFVAFFVTITGSVAGAAAAPEVNMELVGHFGGTTDAVDVAGNYAYVGQGQDFLILDITNPSSPVLVSKIMTEGFVRDIKVSRNYAYVADDDNGLVIVDISNPSSPTLKGSYNIPGYTYCITVSGNYAYVADNDGLVIVDISNPSDPILKGRYAGPTGDVAVYGNYAYVADWGNGLMIVDISNPSSPVLKGSYDTAGDIYGVSISGNYAYVADGDTGLVIVDISNPSSPTLKGNYNTAGIACDVSVLGNYAYVADNDNGLVIVDISDPSSPVLKGNGSTTGYAHGIEVSGNYAYVANSNTGLVIVDISNPSSPTLKGSCDTIVRAKSIAVSGNYAYIADWDNGLVIVDISNPSSPFLKGSCDTPRSAQGVAVSGNYAYVADDDGLVIVDISNPSFPILNKSYNTGGWAQGITVSGNYAYVIDMANGIFIVDISNPSSPILEGMYDTSPIIIENYDYTGSIWSVSVSGNYAYVADEGNGLLIVDISNPSSPILKGSYDTAGLAYDVAVSGNYAYVADSKNGLAIIDISNPSSPILVGNYNTSGYAECVSISGNYAYVAVDDSLVVVDISNPSSPILKGLYAGSAGDIAVSGNYVYASEGVNGLVILKANPESAFTVADFSSNITSGYAPLSIQFNDHSQNATSWNWDFGDGYNSTNQNPIHTYSSAGTYTVNLTVINENRTASKVAKIFVLNTSSSTEENSSGSEETGGDGVILTKDTGAPTKERKITPGFEIVYWVVSLLVAFWIKGSNKK	failed
MSDIPSDLHYTAEHEWIRRSGDDTVRVGITDYAQSALGDVVFVQLPVIGTAVTAGETFGEVESTKSVSDLYAPISGKVSEVNSDLDGTPQLVNSDPYGAGWLLDIQVDSSDVAALESALTTLLDAEAYRGTLTE	not failed
MTSTASSTDIRQGQAADEQWPSWQQRLRRFGYTAPPRTDVRDRLVPPFSEPSPRLWAAIGLRQEVADRVTRWSAWGGPLLVTLLAGLLRFWNLGSPKAVIFDETYYAKDAWALIHNGYEANWAKDANDLILQGNGHVAIPTDPAYVVHPPVGKYVIGLGEWLFGFTPFGWRFMTALLGTLSVLLLCRIGRRLFRSTFLGCLAGALMAVDGLHFVMSRTSLLDGVLMFFVLAAFGCLVVDRDRARARLAAALPADADGVVRPDAHTAETTRLGPRPWRWLAGLMLGLALGTKWNALYVMAAFCVMAVLWDVGSRRVAGARRPYAAVLRRDTGITFLATVPVAVATYLVSWTGWILSPANGSGGYFRNWAATDGKGGHWTWLPDWLRSLWHYEHEVYEFHVGLSSPHQYQSNPWSWLVAGRPVSYFYESPSPGKDGCPADAGEKCAREVLALGTPLLWWAACFAVLYVLWRWLFRRDWRAGAIACGIAAGWLPWMMYQERTIFYFYAVVFVPFLCLAVAMMIGAILGPPGSGERRRVVGAAGAGVLVLLIAWNFIYFWPLYTGTAIPIDDWRSRMWLDTWV	failed
MTVAQQAPSALNFDCETGNYHTFCPISCVSWLYQKIEDSFFLVIGTKTCGYFLQNAMGVMIFAEPRYAMAELEEGDISAQLKDYEELKRLCLQIKRDRNPSVIVWIGTCTTEIIKMDLEGLAPQLEAEIGIPIVTARANGLDYAFTQGEDTVLASMAHKCPTSAQVQGEDKEERNAIQKLLTFGRKADQEKVESEYVDHQPLVLFGSLPDPVVTNLTLELKKQGVKVSGWLPAKRYTELPVIDEGYYVAGVNPFLSRTATTLMRRRKCKLIGAPFPIGPDGTRAWIEKICSVLGIEPQGLEEREAQIWASLEDYIQLIRGKSVFFMGDNLLEVSLARFLIRCGMTCPEIGIPYMDKRYQAAELALLEKTCSDMGVPLPNIVEKPDNYNQIQRIKALQPDLVITGMAHANPLEAQGINTKWSVEFTFAQIHGFTNARDILELATRPLRRNSQLGELGWDKLIAKDVPAQV	failed
MSYSPSLKEIIAILQKYTSKNYQSNCKTRPDGKLELSLNGVFEEIVKTPGKTRYVTHKQLDQKLKDFKQDLMVELHDTFATKTDLKESEARINQKLEALIQIVMVQGEQIKVHGEQINKLTQAVEKQGEKIEAQGQQIQKVNETLNFVVESLGSIHKRLDSMEGRLDSMENRLDKLESKLEHHHHHH	not failed
MTQSALHTEFGGIAALRDALARRQVSAVELAQSGLDAAQAASGLNAFLHIDPELTLAQARAADAALAAGTAGPLAGIPIAHKDAFVTRGWRTTAGSKMLAGYASPFDATVVERLAEAGAVSLGKLNCDEFAMGSGNENSAYGPVRNPWDTRAVPGGSSGGSAAAVAARLVAAATGTDTGGSVRQPAALCGVSGIKPTYGTVSRYGMIAFGSSLDQAGPLAPSSRDLLELLDVMTGFDPRDATSLQACDGQANESGRVRRGHDAAQAGYDAAGSQPLKGLRIGVPQEYFGAGLAPDVAAAVEAALAQFEQLGAVRVPVSLPRTELAIPAYYVIAPAEASSNLARYDGVRYGHRAAQYGDLNEMISRSRAEGFGDEVKRRILIGTYVLSHGYYDAYYLQAQRLRRLIAQDFQRAFADQCDVIMGPVSPTVAKNIGDNRDDPTADWLADVYTLGVSLAGLPAMSVPCGFGGQDGRRPVGLQIIGNYFDEGRLLALADRYQQVTDWHQRAPVSQDA	failed
MASSPRPTEQTKQFFQQWQTYQQLVDHNYMAHRQIHQAVGALIQQQFDRPFDFLDLGCGDAQAIAKTLTGSKINSYTGVDLSPNALALAQKNLDPFRQVELRETDFLTYLGEANQTAPASFDLIHVGFSLHHLLPEEKEQFFAHCFSLLRPGGCLVIYDVFRQPEQNRQQYIEAYLAKAESQWTALAPDQLQAIAAHIKECDFPELVATMAEIGQKVGFIPPQVLFTEPRGFHHCFAFAISQSGKALAQDGV	failed
MTDRIMALVDGSGFSRSVCLHAAWLAQRLELPVDLLHVLGRREAADRGDLSGALQLGARTALLEELAALDAERARLAQAQGRAILEDAQAILAAESVETTPHLRQGDLIDTVAGFERSGRALVVGKRGRAAGFASAHLGSNLERLLRASKLPVLIVPADCR	failed
